# Source: patent US5677163
# Legend:
# [1] = target: sAAApNA
# [2] = target: VLKpNA
# [3] = target: KAAFpNA
# [4] = target: sAAPFpNA
# [5] = target: sAAPLpNA
# [6] = target: sAAPMpNA
substance,measurement,setting,value
B. amyloliquefaciens subtilisin (protease) (enzyme),Hydrolysis Rate (A405 /min),[1],0.011 A405/min
same,Hydrolysis Rate (A405 /min),[2],0.0017 A405/min
same,Hydrolysis Rate (A405 /min),[3],0.002 A405/min
same,Hydrolysis Rate (A405 /min),[4],0.83 A405/min
same,Hydrolysis Rate (A405 /min),[5],0.45 A405/min
same,Hydrolysis Rate (A405 /min),[6],0.25 A405/min
B. lentus protease (Savinase) (enzyme),Hydrolysis Rate (A405 /min),[1],0.176 A405/min
same,Hydrolysis Rate (A405 /min),[2],0.0003 A405/min
same,Hydrolysis Rate (A405 /min),[3],0.08 A405/min
same,Hydrolysis Rate (A405 /min),[4],1.15 A405/min
same,Hydrolysis Rate (A405 /min),[5],0.23 A405/min
same,Hydrolysis Rate (A405 /min),[6],0.75 A405/min
"LG-12 protease (Bacillus sp. strain LG-12 subtilisin, product of the sprC gene) (enzyme)",Hydrolysis Rate (A405 /min),[1],0.014 A405/min
same,Hydrolysis Rate (A405 /min),[2],0.0008 A405/min
same,Hydrolysis Rate (A405 /min),[3],0.006 A405/min
same,Hydrolysis Rate (A405 /min),[4],0.87 A405/min
same,Hydrolysis Rate (A405 /min),[5],0.58 A405/min
same,Hydrolysis Rate (A405 /min),[6],0.19 A405/min
